# Measurements taken from patent publication US20200002421A1 (AbbVie / Abbott, published 2020).
# Target: T1, Human full length B7-H3 (human, UniProt Q5ZPR3 29-534)
# T1 sequence: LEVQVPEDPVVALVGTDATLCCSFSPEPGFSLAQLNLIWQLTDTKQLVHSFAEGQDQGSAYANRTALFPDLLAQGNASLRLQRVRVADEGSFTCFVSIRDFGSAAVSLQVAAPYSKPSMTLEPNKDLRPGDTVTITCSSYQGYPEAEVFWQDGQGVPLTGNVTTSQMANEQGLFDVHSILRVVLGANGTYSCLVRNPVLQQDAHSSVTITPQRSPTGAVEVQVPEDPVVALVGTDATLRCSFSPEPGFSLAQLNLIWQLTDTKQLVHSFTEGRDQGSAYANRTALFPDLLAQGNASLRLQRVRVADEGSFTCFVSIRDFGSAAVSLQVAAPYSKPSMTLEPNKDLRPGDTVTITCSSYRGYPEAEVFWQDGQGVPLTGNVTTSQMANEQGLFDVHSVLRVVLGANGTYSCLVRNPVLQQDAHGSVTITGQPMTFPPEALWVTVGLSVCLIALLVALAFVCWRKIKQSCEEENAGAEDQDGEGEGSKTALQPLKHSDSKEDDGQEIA
# Assay: cell-based or functional assay
row,Binder,EC50 nM H1650 (in vitro tumor cell cytotoxicity) [nM]
1,"huAb3v2.5-ZT (antibody, human IgG1, kappa, L234A L235A, V domains shown, synthon ZT on interchain Cys) VH: EVQLVQSGAEVKKPGSSVKVSCKASGYTFSSYWMHWVRQAPGQGLEWIGLIHPESGSTNYNEMFKNRATLTVDRSTSTAYMELSSLRSEDTAVYYCAGGGRLYFDYWGQGTTVTVSS VL: DIVMTQSPLSLPVTPGEPASISCRSSQSLVHSNRDTYLRWYLQKPGQSPQLLIYKVSNRFSGVPDRFSGSGSGTDFTLKISRVEAEDVGVYYCSQSTHVPYTFGGGTKVEIKR",0.95
2,"huAb3v2.6-YY (antibody, human IgG1, kappa, L234A L235A, V domains shown, synthon YY on interchain Cys) VH: EVQLVQSGAEVKKPGSSVKVSCKASGYTFSSYWMHWVRQAPGQGLEWIGLIHPESGSTNYNEMFKNRATLTVDRSTSTAYMELSSLRSEDTAVYYCAGGGRLYFDYWGQGTTVTVSS VL: DIVMTQSPLSLPVTPGEPASISCRSSQSLVHSNQDTYLRWYLQKPGQSPQLLIYKVSNRFSGVPDRFSGSGSGTDFTLKISRVEAEDVGVYYCSQSTHVPYTFGGGTKVEIKR",0.72
3,"huAb3v2.6-AAD (antibody, human IgG1, kappa, L234A L235A, V domains shown, synthon AAD on interchain Cys) VH: EVQLVQSGAEVKKPGSSVKVSCKASGYTFSSYWMHWVRQAPGQGLEWIGLIHPESGSTNYNEMFKNRATLTVDRSTSTAYMELSSLRSEDTAVYYCAGGGRLYFDYWGQGTTVTVSS VL: DIVMTQSPLSLPVTPGEPASISCRSSQSLVHSNQDTYLRWYLQKPGQSPQLLIYKVSNRFSGVPDRFSGSGSGTDFTLKISRVEAEDVGVYYCSQSTHVPYTFGGGTKVEIKR",0.85
4,"huAb3v2.5-KZ (antibody, human IgG1, kappa, L234A L235A, V domains shown, synthon KZ on interchain Cys) VH: EVQLVQSGAEVKKPGSSVKVSCKASGYTFSSYWMHWVRQAPGQGLEWIGLIHPESGSTNYNEMFKNRATLTVDRSTSTAYMELSSLRSEDTAVYYCAGGGRLYFDYWGQGTTVTVSS VL: DIVMTQSPLSLPVTPGEPASISCRSSQSLVHSNRDTYLRWYLQKPGQSPQLLIYKVSNRFSGVPDRFSGSGSGTDFTLKISRVEAEDVGVYYCSQSTHVPYTFGGGTKVEIKR",0.87
5,"huAb3v2.6-AAA (antibody, human IgG1, kappa, L234A L235A, V domains shown, synthon AAA on interchain Cys) VH: EVQLVQSGAEVKKPGSSVKVSCKASGYTFSSYWMHWVRQAPGQGLEWIGLIHPESGSTNYNEMFKNRATLTVDRSTSTAYMELSSLRSEDTAVYYCAGGGRLYFDYWGQGTTVTVSS VL: DIVMTQSPLSLPVTPGEPASISCRSSQSLVHSNQDTYLRWYLQKPGQSPQLLIYKVSNRFSGVPDRFSGSGSGTDFTLKISRVEAEDVGVYYCSQSTHVPYTFGGGTKVEIKR",1.24
6,"huAb3v2.5-XW (antibody, human IgG1, kappa, L234A L235A, V domains shown, synthon XW on interchain Cys) VH: EVQLVQSGAEVKKPGSSVKVSCKASGYTFSSYWMHWVRQAPGQGLEWIGLIHPESGSTNYNEMFKNRATLTVDRSTSTAYMELSSLRSEDTAVYYCAGGGRLYFDYWGQGTTVTVSS VL: DIVMTQSPLSLPVTPGEPASISCRSSQSLVHSNRDTYLRWYLQKPGQSPQLLIYKVSNRFSGVPDRFSGSGSGTDFTLKISRVEAEDVGVYYCSQSTHVPYTFGGGTKVEIKR",2.18
7,"huAb3v2.6-CZ (antibody, human IgG1, kappa, L234A L235A, V domains shown, synthon CZ on interchain Cys) VH: EVQLVQSGAEVKKPGSSVKVSCKASGYTFSSYWMHWVRQAPGQGLEWIGLIHPESGSTNYNEMFKNRATLTVDRSTSTAYMELSSLRSEDTAVYYCAGGGRLYFDYWGQGTTVTVSS VL: DIVMTQSPLSLPVTPGEPASISCRSSQSLVHSNQDTYLRWYLQKPGQSPQLLIYKVSNRFSGVPDRFSGSGSGTDFTLKISRVEAEDVGVYYCSQSTHVPYTFGGGTKVEIKR",0.4
8,"huAb3v2.6-XW (antibody, human IgG1, kappa, L234A L235A, V domains shown, synthon XW on interchain Cys) VH: EVQLVQSGAEVKKPGSSVKVSCKASGYTFSSYWMHWVRQAPGQGLEWIGLIHPESGSTNYNEMFKNRATLTVDRSTSTAYMELSSLRSEDTAVYYCAGGGRLYFDYWGQGTTVTVSS VL: DIVMTQSPLSLPVTPGEPASISCRSSQSLVHSNQDTYLRWYLQKPGQSPQLLIYKVSNRFSGVPDRFSGSGSGTDFTLKISRVEAEDVGVYYCSQSTHVPYTFGGGTKVEIKR",2.4
9,"huAb3v2.6-TV (antibody, human IgG1, kappa, L234A L235A, V domains shown, synthon TV on interchain Cys) VH: EVQLVQSGAEVKKPGSSVKVSCKASGYTFSSYWMHWVRQAPGQGLEWIGLIHPESGSTNYNEMFKNRATLTVDRSTSTAYMELSSLRSEDTAVYYCAGGGRLYFDYWGQGTTVTVSS VL: DIVMTQSPLSLPVTPGEPASISCRSSQSLVHSNQDTYLRWYLQKPGQSPQLLIYKVSNRFSGVPDRFSGSGSGTDFTLKISRVEAEDVGVYYCSQSTHVPYTFGGGTKVEIKR",0.52
10,"huAb3v2.5-YG (antibody, human IgG1, kappa, L234A L235A, V domains shown, synthon YG on interchain Cys) VH: EVQLVQSGAEVKKPGSSVKVSCKASGYTFSSYWMHWVRQAPGQGLEWIGLIHPESGSTNYNEMFKNRATLTVDRSTSTAYMELSSLRSEDTAVYYCAGGGRLYFDYWGQGTTVTVSS VL: DIVMTQSPLSLPVTPGEPASISCRSSQSLVHSNRDTYLRWYLQKPGQSPQLLIYKVSNRFSGVPDRFSGSGSGTDFTLKISRVEAEDVGVYYCSQSTHVPYTFGGGTKVEIKR",0.71
11,"huAb3v2.5-SE (antibody, human IgG1, kappa, L234A L235A, V domains shown, synthon SE on interchain Cys) VH: EVQLVQSGAEVKKPGSSVKVSCKASGYTFSSYWMHWVRQAPGQGLEWIGLIHPESGSTNYNEMFKNRATLTVDRSTSTAYMELSSLRSEDTAVYYCAGGGRLYFDYWGQGTTVTVSS VL: DIVMTQSPLSLPVTPGEPASISCRSSQSLVHSNRDTYLRWYLQKPGQSPQLLIYKVSNRFSGVPDRFSGSGSGTDFTLKISRVEAEDVGVYYCSQSTHVPYTFGGGTKVEIKR",0.85
12,"huAb3v2.5-ZZ (antibody, human IgG1, kappa, L234A L235A, V domains shown, synthon ZZ on interchain Cys) VH: EVQLVQSGAEVKKPGSSVKVSCKASGYTFSSYWMHWVRQAPGQGLEWIGLIHPESGSTNYNEMFKNRATLTVDRSTSTAYMELSSLRSEDTAVYYCAGGGRLYFDYWGQGTTVTVSS VL: DIVMTQSPLSLPVTPGEPASISCRSSQSLVHSNRDTYLRWYLQKPGQSPQLLIYKVSNRFSGVPDRFSGSGSGTDFTLKISRVEAEDVGVYYCSQSTHVPYTFGGGTKVEIKR",1.1
13,"huAb3v2.6-TX (antibody, human IgG1, kappa, L234A L235A, V domains shown, synthon TX on interchain Cys) VH: EVQLVQSGAEVKKPGSSVKVSCKASGYTFSSYWMHWVRQAPGQGLEWIGLIHPESGSTNYNEMFKNRATLTVDRSTSTAYMELSSLRSEDTAVYYCAGGGRLYFDYWGQGTTVTVSS VL: DIVMTQSPLSLPVTPGEPASISCRSSQSLVHSNQDTYLRWYLQKPGQSPQLLIYKVSNRFSGVPDRFSGSGSGTDFTLKISRVEAEDVGVYYCSQSTHVPYTFGGGTKVEIKR",0.47
14,"huAb3v2.6-ZZ (antibody, human IgG1, kappa, L234A L235A, V domains shown, synthon ZZ on interchain Cys) VH: EVQLVQSGAEVKKPGSSVKVSCKASGYTFSSYWMHWVRQAPGQGLEWIGLIHPESGSTNYNEMFKNRATLTVDRSTSTAYMELSSLRSEDTAVYYCAGGGRLYFDYWGQGTTVTVSS VL: DIVMTQSPLSLPVTPGEPASISCRSSQSLVHSNQDTYLRWYLQKPGQSPQLLIYKVSNRFSGVPDRFSGSGSGTDFTLKISRVEAEDVGVYYCSQSTHVPYTFGGGTKVEIKR",1.35
15,"huAb3v2.5-SR (antibody, human IgG1, kappa, L234A L235A, V domains shown, synthon SR on interchain Cys) VH: EVQLVQSGAEVKKPGSSVKVSCKASGYTFSSYWMHWVRQAPGQGLEWIGLIHPESGSTNYNEMFKNRATLTVDRSTSTAYMELSSLRSEDTAVYYCAGGGRLYFDYWGQGTTVTVSS VL: DIVMTQSPLSLPVTPGEPASISCRSSQSLVHSNRDTYLRWYLQKPGQSPQLLIYKVSNRFSGVPDRFSGSGSGTDFTLKISRVEAEDVGVYYCSQSTHVPYTFGGGTKVEIKR",0.59
16,"huAb3v2.6-ZT (antibody, human IgG1, kappa, L234A L235A, V domains shown, synthon ZT on interchain Cys) VH: EVQLVQSGAEVKKPGSSVKVSCKASGYTFSSYWMHWVRQAPGQGLEWIGLIHPESGSTNYNEMFKNRATLTVDRSTSTAYMELSSLRSEDTAVYYCAGGGRLYFDYWGQGTTVTVSS VL: DIVMTQSPLSLPVTPGEPASISCRSSQSLVHSNQDTYLRWYLQKPGQSPQLLIYKVSNRFSGVPDRFSGSGSGTDFTLKISRVEAEDVGVYYCSQSTHVPYTFGGGTKVEIKR",1.11
17,"huAb3v2.6-LB (antibody, human IgG1, kappa, L234A L235A, V domains shown, synthon LB on interchain Cys) VH: EVQLVQSGAEVKKPGSSVKVSCKASGYTFSSYWMHWVRQAPGQGLEWIGLIHPESGSTNYNEMFKNRATLTVDRSTSTAYMELSSLRSEDTAVYYCAGGGRLYFDYWGQGTTVTVSS VL: DIVMTQSPLSLPVTPGEPASISCRSSQSLVHSNQDTYLRWYLQKPGQSPQLLIYKVSNRFSGVPDRFSGSGSGTDFTLKISRVEAEDVGVYYCSQSTHVPYTFGGGTKVEIKR",2.07
18,"huAb3v2.6-WD (antibody, human IgG1, kappa, L234A L235A, V domains shown, synthon WD on interchain Cys) VH: EVQLVQSGAEVKKPGSSVKVSCKASGYTFSSYWMHWVRQAPGQGLEWIGLIHPESGSTNYNEMFKNRATLTVDRSTSTAYMELSSLRSEDTAVYYCAGGGRLYFDYWGQGTTVTVSS VL: DIVMTQSPLSLPVTPGEPASISCRSSQSLVHSNQDTYLRWYLQKPGQSPQLLIYKVSNRFSGVPDRFSGSGSGTDFTLKISRVEAEDVGVYYCSQSTHVPYTFGGGTKVEIKR",0.79
19,"huAb13v1-TV (antibody, human IgG1, kappa, L234A L235A, V domains shown, synthon TV on interchain Cys) VH: EVQLQESGPGLVKPSETLSLTCAVTGYSITSGYSWHWIRQFPGNGLEWMGYIHSSGSTNYNPSLKSRISISRDTSKNQFFLKLSSVTAADTAVYYCAGYDDYFEYWGQGTTVTVSS VL: DIQMTQSPSSLSASVGDRVTITCKASQNVGFNVAWYQQKPGKSPKALIYSASYRYSGVPSRFSGSGSGTDFTLTISSLQPEDFAEYFCQQYNWYPFTFGQGTKLEIKR",0.43
20,"huAb13v1-AAA (antibody, human IgG1, kappa, L234A L235A, V domains shown, synthon AAA on interchain Cys) VH: EVQLQESGPGLVKPSETLSLTCAVTGYSITSGYSWHWIRQFPGNGLEWMGYIHSSGSTNYNPSLKSRISISRDTSKNQFFLKLSSVTAADTAVYYCAGYDDYFEYWGQGTTVTVSS VL: DIQMTQSPSSLSASVGDRVTITCKASQNVGFNVAWYQQKPGKSPKALIYSASYRYSGVPSRFSGSGSGTDFTLTISSLQPEDFAEYFCQQYNWYPFTFGQGTKLEIKR",0.37
